Starred links: 1 amine or outer side, 2 acyl side, 3 side chain; linkers in the order of their positions; H or OH if unused. Positions of bridges follow the written chain, without caps; N, C: chain ends. Non-standard residues stand in square brackets, D forms with d. Primed or numbered codes have the meaning given here. PyrS2″ = (S)-3-amino-1-((pent-4-en-1-yloxy)carbonyl)pyrrolidine-3-carboxylic acid (stapling residue), C=CCCCOC(=O)N1CC[C@@](N[*:1])(C(=O)[*:2])C1; B5(16) = 2-amino-2-(pent-4-en-1-yl)hept-6-enoic acid = 2,2-bis(4-pentenyl)glycine (stitching residue), C=CCCCC(CCCC=C)(N[*:1])C(=O)[*:2]; B5(4) = 2,2-bis(4-pentenyl)glycine = 2-amino-2-(pent-4-en-1-yl)hept-6-enoic acid (stitching residue), C=CCCCC(CCCC=C)(N[*:1])C(=O)[*:2]; B5(21) = 2-amino-2-(pent-4-en-1-yl)hept-6-enoic acid, bis(4-pentenyl)glycine (stitching residue), C=CCCCC(CCCC=C)(N[*:1])C(=O)[*:2]; (NMe2)GlnR(3) = [NMe2]GlnR, N5,N5-dimethyl-L-glutamine, CN(C)C(=O)CC[C@H](N[*:1])C(=O)[*:2]; TOMe = O-methyl-L-threonine, CO[C@H](C)[C@H](N[*:1])C(=O)[*:2]; Phe(3-COOH) = N[C@@H](Cc1cccc(C(=O)O)c1)C(=O)O; 2F3MeF = Cc1cccc(C[C@H](N[*:1])C(=O)[*:2])c1F; Phe(2-CF3) = N[C@@H](Cc1ccccc1C(F)(F)F)C(=O)O; AcLys = CC(=O)NCCCC[C@H](N[*:1])C(=O)[*:2]; Bta = N[C@@H](Cc1csc2ccccc12)C(=O)O; αAllylPro = C=CC[C@@]1(C(=O)O)CCCN1; tBuAla = CC(C)(C)C[C@H](N)C(=O)O; 3Thi = N[C@@H](Cc1ccsc1)C(=O)O; S8 = C=CCCCCCC[C@](C)(N)C(=O)O; Nle = CCCC[C@H](N)C(=O)O; Aib = CC(C)(N)C(=O)O
T1: B-cat-Halo (UniProt P35222 1-781, HaloTag NanoBRET 618 Ligand bound in the assay)
T1 sequence (looked up): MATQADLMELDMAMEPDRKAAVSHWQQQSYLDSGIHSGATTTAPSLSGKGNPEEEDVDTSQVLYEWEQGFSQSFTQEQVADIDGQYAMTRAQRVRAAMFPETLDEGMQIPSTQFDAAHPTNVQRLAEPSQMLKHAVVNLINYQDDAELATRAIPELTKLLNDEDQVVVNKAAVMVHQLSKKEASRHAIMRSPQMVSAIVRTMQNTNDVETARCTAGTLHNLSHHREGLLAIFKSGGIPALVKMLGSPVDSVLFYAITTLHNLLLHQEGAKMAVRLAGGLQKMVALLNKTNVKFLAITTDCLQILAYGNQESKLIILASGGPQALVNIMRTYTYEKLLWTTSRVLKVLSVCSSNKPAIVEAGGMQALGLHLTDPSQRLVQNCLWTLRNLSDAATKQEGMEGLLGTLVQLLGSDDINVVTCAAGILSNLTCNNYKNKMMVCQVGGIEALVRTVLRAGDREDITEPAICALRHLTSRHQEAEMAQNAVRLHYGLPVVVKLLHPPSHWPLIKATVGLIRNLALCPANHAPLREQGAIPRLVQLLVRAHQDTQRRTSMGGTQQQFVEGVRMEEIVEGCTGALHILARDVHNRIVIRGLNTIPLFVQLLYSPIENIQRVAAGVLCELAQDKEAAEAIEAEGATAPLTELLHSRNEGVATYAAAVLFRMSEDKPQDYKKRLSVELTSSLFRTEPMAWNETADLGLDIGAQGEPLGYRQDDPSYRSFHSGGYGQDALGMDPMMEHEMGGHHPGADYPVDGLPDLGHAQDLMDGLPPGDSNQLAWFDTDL

T2: full-length beta-Catenin (Uniprot ID P35222) (Homo sapiens (Human), UniProt P35222 2-781)
T2 construct: Tags of the recombinant protein are not described for the FP assay; also called bCat; B-Catenin
T2 sequence: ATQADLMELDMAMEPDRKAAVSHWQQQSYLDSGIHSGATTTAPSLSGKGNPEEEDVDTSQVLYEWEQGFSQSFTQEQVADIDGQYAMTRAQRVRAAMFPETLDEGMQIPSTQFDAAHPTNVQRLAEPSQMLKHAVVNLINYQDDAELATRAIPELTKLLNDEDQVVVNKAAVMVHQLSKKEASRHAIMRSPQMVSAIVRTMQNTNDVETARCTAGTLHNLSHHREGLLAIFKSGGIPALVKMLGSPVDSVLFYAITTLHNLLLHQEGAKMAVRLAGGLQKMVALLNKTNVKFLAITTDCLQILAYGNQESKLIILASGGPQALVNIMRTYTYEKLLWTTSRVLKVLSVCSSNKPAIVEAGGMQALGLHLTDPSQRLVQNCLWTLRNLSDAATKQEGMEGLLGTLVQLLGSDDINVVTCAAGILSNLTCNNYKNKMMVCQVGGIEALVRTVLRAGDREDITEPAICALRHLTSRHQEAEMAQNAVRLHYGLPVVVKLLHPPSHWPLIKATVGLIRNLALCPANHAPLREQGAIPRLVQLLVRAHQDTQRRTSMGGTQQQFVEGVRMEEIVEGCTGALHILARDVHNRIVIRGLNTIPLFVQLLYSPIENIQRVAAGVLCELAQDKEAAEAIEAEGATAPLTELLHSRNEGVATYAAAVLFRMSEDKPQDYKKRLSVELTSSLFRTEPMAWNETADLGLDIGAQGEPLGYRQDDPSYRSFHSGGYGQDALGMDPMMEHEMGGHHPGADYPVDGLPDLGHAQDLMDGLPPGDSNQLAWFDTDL

T3: full-length beta-Catenin (Uniprot ID P35222) (Homo sapiens (Human), UniProt P35222 1-781)
T3 construct: also called bCat; B-Catenin
T3 sequence: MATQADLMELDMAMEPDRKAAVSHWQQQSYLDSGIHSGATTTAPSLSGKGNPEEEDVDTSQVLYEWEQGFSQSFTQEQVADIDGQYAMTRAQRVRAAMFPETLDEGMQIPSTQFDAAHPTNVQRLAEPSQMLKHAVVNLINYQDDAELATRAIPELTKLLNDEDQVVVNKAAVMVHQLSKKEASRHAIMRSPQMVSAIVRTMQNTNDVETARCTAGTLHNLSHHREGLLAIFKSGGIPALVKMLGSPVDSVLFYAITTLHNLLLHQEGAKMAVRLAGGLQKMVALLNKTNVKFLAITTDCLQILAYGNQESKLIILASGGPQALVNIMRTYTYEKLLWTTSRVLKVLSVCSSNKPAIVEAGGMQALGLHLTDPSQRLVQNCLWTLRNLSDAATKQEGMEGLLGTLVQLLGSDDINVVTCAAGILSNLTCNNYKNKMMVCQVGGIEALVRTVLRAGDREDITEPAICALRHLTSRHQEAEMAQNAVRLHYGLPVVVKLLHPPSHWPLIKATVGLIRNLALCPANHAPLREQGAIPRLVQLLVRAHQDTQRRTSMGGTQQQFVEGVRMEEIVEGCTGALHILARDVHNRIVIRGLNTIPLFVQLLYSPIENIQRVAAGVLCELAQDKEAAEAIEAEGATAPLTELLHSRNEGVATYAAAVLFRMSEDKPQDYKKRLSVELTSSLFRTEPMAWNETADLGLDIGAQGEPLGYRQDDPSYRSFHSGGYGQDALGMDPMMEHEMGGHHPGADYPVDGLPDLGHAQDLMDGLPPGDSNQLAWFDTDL


These binders were tested against T1, B-cat-Halo (assay: cell-based or functional assay).

| Binder | NanoBRET Abs IC50 [µM] |
| --- | --- |
| Ac-[αAllylPro]D[tBuAla][B5(4)]D[Phe(3-COOH)][Aib]AF[Nle][PyrS2″][3Thi][Bta][(NMe2)GlnR(3)]-NH2 (staple 1-4, 4-11) [I-2551] | 9.8 |
| Ac-[αAllylPro]D[tBuAla][B5(4)]D[Phe(3-COOH)]AAF[AcLys][PyrS2″][2F3MeF][Bta][MorphGln]-NH2 (staple 1-4, 4-11; not fully specified; printed as Ac-PL3-Asp-Npg-B5-Asp-3COOHF-Ala-Ala-Phe-AcLys-PyrS2-2F3MeF-BztA-MorphGln-NH2) [I-2548] | 3.6 |
| Ac-[αAllylPro]D[tBuAla][B5(4)]D[Phe(3-COOH)]AAF[MorphGln][PyrS2″][2F3MeF][Bta][MorphGln]-NH2 (staple 1-4, 4-11; not fully specified; printed as Ac-PL3-Asp-Npg-B5-Asp-3COOHF-Ala-Ala-Phe-MorphGln-PyrS2-2F3MeF-BztA-MorphGln-NH2) [I-2547] | 3.5 |
| Ac-[αAllylPro]D[tBuAla][B5(4)]D[Phe(3-COOH)]AAF[AcLys][PyrS2″][2F3MeF][Bta][MorphGln]-NH2 (staple 1-4, 4-11; not fully specified; printed as Ac-PL3-Asp-Npg-B5-Asp-3COOHF-Ala-Ala-Phe-AcLys-PyrS2-2F3MeF-BztA-MorphGln-NH2) [I-2549] | 2.5 |
| Ac-[αAllylPro]D[tBuAla][B5(4)]D[Phe(3-COOH)]AAF[Me2Gln][PyrS2″][Phe(2-CF3)][Bta][MorphGln]-NH2 (staple 1-4, 4-11; not fully specified; printed as Ac-PL3-Asp-Npg-B5-Asp-3COOHF-Ala-Ala-Phe-Me2Gln-PyrS2-2F3MeF-BztA-MorphGln-NH2) [I-2545] | 4 |
| Ac-[αAllylPro]D[tBuAla][B5(4)]D[Phe(3-COOH)]AAF[Me2Gln][PyrS2″][2F3MeF][Bta][MorphGln]-NH2 (staple 1-4, 4-11; not fully specified; printed as Ac-PL3-Asp-Npg-B5-Asp-3COOHF-Ala-Ala-Phe-Me2Gln-PyrS2-2F3MeF-BztA-MorphGln-NH2) [I-2544] | 4.1 |
| Ac-[αAllylPro]D[tBuAla][B5(4)]D[Phe(3-COOH)]AAF[MorphGln][PyrS2″][2F3MeF][Bta][MorphGln]-NH2 (staple 1-4, 4-11; not fully specified; printed as Ac-PL3-Asp-Npg-B5-Asp-3COOHF-Ala-Ala-Phe-MorphGln-PyrS2-2F3MeF-BztA-MorphGln-NH2) [I-2546] | 3.5 |
| Ac-[αAllylPro]D[tBuAla][B5(4)]D[Phe(3-COOH)][Aib]AF[Nle][PyrS2″][3Thi][Bta][(NHEt)GlnR]-NH2 (staple 1-4, 4-11) [I-2552] | 10.4 |

These binders were tested against T2, full-length beta-Catenin (Uniprot ID …) (assay: fluorescence polarization competition; full-length beta-catenin, competitor 5FAM-TCF4 10-53).
Protocol: (§1) The plate was incubated protected from light for 60 minutes at 20° C. prior to read. Reads were performed on a CLARIOstar plate reader (BMG Labtech) in duplicate, and data were fitted to a 1:1 binding model with hill slope using an in-house script. All provided concentrations are final concentrations.

| Binder | IC50 [nM] |
| --- | --- |
| XDIXDEAAFQXFXP (not fully specified; As printed: Ac-PL3-Asp-Ile-B5-Asp-Glu-Ala-Ala-Phe-Gln-S8-Phe-BztA-Pro-NH2; N-terminal Ac, C-terminal NH2; PL3 (1), B5 (4), S8 (11), BztA (13); staples PL3-B5 and B5-S8 by olefin metathesis, Stapled peptide composition; also called Ac-PL3-Asp-Ile-B5-Asp-Glu-Ala-Ala-Phe-Gln-S8-Phe-BztA-Pro-NH2) [I-637] | 5000 |
| Ac-[αAllylPro]DI[B5(16)]DEAAFQ[S8]F[Bta]R-NH2 (staple 1-4, 4-11, Stapled peptide composition; also called Ac-PL3-Asp-Ile-B5-Asp-Glu-Ala-Ala-Phe-Gln-S8-Phe-BztA-Arg-NH2) [I-633] | 88 |
| Ac-[αAllylPro]DI[B5(16)]DEAAFQ[S8]F[Bta]Y-NH2 (staple 1-4, 4-11, Stapled peptide composition; also called Ac-PL3-Asp-Ile-B5-Asp-Glu-Ala-Ala-Phe-Gln-S8-Phe-BztA-Tyr-NH2) [I-636] | 198 |
| Ac-[αAllylPro]DI[B5(16)]DEAAFQ[S8]F[Bta]L-NH2 (staple 1-4, 4-11, Stapled peptide composition; also called Ac-PL3-Asp-Ile-B5-Asp-Glu-Ala-Ala-Phe-Gln-S8-Phe-BztA-Leu-NH2) [I-634] | 425 |
| XDIXDEAAFQXFXS (not fully specified; As printed: Ac-PL3-Asp-Ile-B5-Asp-Glu-Ala-Ala-Phe-Gln-S8-Phe-BztA-Ser-NH2; N-terminal Ac, C-terminal NH2; PL3 (1), B5 (4), S8 (11), BztA (13); staples PL3-B5 and B5-S8 by olefin metathesis, Stapled peptide composition; also called Ac-PL3-Asp-Ile-B5-Asp-Glu-Ala-Ala-Phe-Gln-S8-Phe-BztA-Ser-NH2) [I-639] | 109 |
| Ac-[αAllylPro]DI[B5(16)]DEAAFQ[S8]F[Bta]F-NH2 (staple 1-4, 4-11, Stapled peptide composition; also called Ac-PL3-Asp-Ile-B5-Asp-Glu-Ala-Ala-Phe-Gln-S8-Phe-BztA-Phe-NH2) [I-635] | 171 |

These binders were tested against T3, full-length beta-Catenin (Uniprot ID …) (assay: fluorescence polarization competition; full-length beta-catenin with 5FAM-labeled TCF4 residues 10-53 probe as competitor).
Protocol: as §1

| Binder | IC50 [nM] |
| --- | --- |
| Ac-[αAllylPro]D[TOMe][B5(21)]DEAAFQ[S8]F[Bta]Q-NH2 (staple 1-4, 4-11, It has the same description as I-542) [I-541] | 180 |

From US20240116985A1 (published 2024)
